Laboratory results: patent publication US12679878B2, “CRF2 receptor agonists and their use in therapy” (SANOFI, priority 2020, dated 2026)
Starred links: 1 amine or outer side, 2 acyl side, 3 side chain; linkers in the order of their positions; H or OH if unused. Non-standard residues stand in square brackets, D forms with d. Groups on a side chain read outwards from the residue. No end group written: not given here. *: point of attachment. C18 diacid = O=C(O)CCCCCCCCCCCCCCCCC(=O)*; γGlu = O=C(O)[C@H](CCC(=O)[*:2])N[*:1]; Palmitoyl = CCCCCCCCCCCCCCCC(=O)*; AEEA = NCCOCCOCC(=O)O; Aib = CC(C)(N)C(=O)O

What was measured:
[1] = target: T1, anti-target CRF1R receptor (UniProt P34998 24-415, limits assumed); experiment: cell-based or functional assay
T1 sequence (looked up): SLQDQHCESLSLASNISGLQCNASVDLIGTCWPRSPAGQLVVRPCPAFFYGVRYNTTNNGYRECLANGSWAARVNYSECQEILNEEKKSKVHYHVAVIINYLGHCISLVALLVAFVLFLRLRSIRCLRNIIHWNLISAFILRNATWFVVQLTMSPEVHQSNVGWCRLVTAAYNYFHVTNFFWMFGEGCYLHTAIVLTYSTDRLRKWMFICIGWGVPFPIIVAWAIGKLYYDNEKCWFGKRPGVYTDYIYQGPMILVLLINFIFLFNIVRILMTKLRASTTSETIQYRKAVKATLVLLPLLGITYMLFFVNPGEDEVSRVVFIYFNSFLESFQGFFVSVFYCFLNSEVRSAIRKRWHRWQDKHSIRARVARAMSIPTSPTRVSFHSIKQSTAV

rat CRF2R α receptor = rat CRF2R α receptor (rat, UniProt P47866 20-411); experiment: cell-based or functional assay
rat CRF2R α receptor, sequence (P47866 20-411): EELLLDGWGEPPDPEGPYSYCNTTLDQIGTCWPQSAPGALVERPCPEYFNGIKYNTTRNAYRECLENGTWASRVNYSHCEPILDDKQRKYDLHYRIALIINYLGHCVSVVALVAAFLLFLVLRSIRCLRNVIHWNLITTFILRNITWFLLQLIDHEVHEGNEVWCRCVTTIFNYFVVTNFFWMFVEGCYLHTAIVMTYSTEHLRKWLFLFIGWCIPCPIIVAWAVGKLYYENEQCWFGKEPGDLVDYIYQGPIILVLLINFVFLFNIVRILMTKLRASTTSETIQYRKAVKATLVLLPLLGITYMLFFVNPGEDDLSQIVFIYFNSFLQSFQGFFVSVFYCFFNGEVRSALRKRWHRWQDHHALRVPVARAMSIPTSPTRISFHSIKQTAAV

Row | Binder | EC50[nM] 0% HSA (cAMP, CRF1R-overexpression CHO cells) [1] | Emax (%) (cAMP, CRF1R-overexpression CHO cells) [1] | EC50 [nM], 0% HSA (cAMP, A7R5 cells) (rat CRF2R α receptor)
1 | IVLSLD[dV]PTKLK([AEEA-AEEA-γGlu-C18 diacid])QKLLKQERQRKEREQAEKNKRILERV-NH2 (N-terminus assumed; SMILES CC[C@H](C)[C@H](N)C(=O)N[C@H](C(=O)N[C@@H](CC(C)C)C(=O)N[C@@H](CO)C(=O)N[C@@H](CC(C)C)C(=O)N[C@@H](CC(=O)O)C(=O)N[C@@H](C(=O)N1CCC[C@H]1C(=O)N[C@H](C(=O)N[C@@H](CCCCN)C(=O)N[C@@H](CC(C)C)C(=O)N[C@@H](CCCCNC(=O)COCCOCCNC(=O)COCCOCCNC(=O)CC[C@H](NC(=O)CCCCCCCCCCCCCCCCC(=O)O)C(=O)O)C(=O)N[C@@H](CCC(N)=O)C(=O)N[C@@H](CCCCN)C(=O)N[C@@H](CC(C)C)C(=O)N[C@@H](CC(C)C)C(=O)N[C@@H](CCCCN)C(=O)N[C@@H](CCC(N)=O)C(=O)N[C@@H](CCC(=O)O)C(=O)N[C@@H](CCCNC(=N)N)C(=O)N[C@@H](CCC(N)=O)C(=O)N[C@@H](CCCNC(=N)N)C(=O)N[C@@H](CCCCN)C(=O)N[C@@H](CCC(=O)O)C(=O)N[C@@H](CCCNC(=N)N)C(=O)N[C@@H](CCC(=O)O)C(=O)N[C@@H](CCC(N)=O)C(=O)N[C@@H](C)C(=O)N[C@@H](CCC(=O)O)C(=O)N[C@@H](CCCCN)C(=O)N[C@@H](CC(N)=O)C(=O)N[C@@H](CCCCN)C(=O)N[C@@H](CCCNC(=N)N)C(=O)N[C@H](C(=O)N[C@@H](CC(C)C)C(=O)N[C@@H](CCC(=O)O)C(=O)N[C@@H](CCCNC(=N)N)C(=O)N[C@H](C(N)=O)C(C)C)[C@@H](C)CC)[C@@H](C)O)C(C)C)C(C)C) [peptide of SEQ ID NO: 24] | > 1000 nM | 1.48% | 4.94 nM
2 | FTLSLDVPTKIK([γGlu-Palmitoyl])QKLFKQAKQKKQRQKAKTNAQILARV-NH2 (N-terminus assumed; SMILES CCCCCCCCCCCCCCCC(=O)N[C@@H](CCC(=O)NCCCC[C@H](NC(=O)[C@@H](NC(=O)[C@H](CCCCN)NC(=O)[C@@H](NC(=O)[C@@H]1CCCN1C(=O)[C@@H](NC(=O)[C@H](CC(=O)O)NC(=O)[C@H](CC(C)C)NC(=O)[C@H](CO)NC(=O)[C@H](CC(C)C)NC(=O)[C@@H](NC(=O)[C@@H](N)Cc1ccccc1)[C@@H](C)O)C(C)C)[C@@H](C)O)[C@@H](C)CC)C(=O)N[C@@H](CCC(N)=O)C(=O)N[C@@H](CCCCN)C(=O)N[C@@H](CC(C)C)C(=O)N[C@@H](Cc1ccccc1)C(=O)N[C@@H](CCCCN)C(=O)N[C@@H](CCC(N)=O)C(=O)N[C@@H](C)C(=O)N[C@@H](CCCCN)C(=O)N[C@@H](CCC(N)=O)C(=O)N[C@@H](CCCCN)C(=O)N[C@@H](CCCCN)C(=O)N[C@@H](CCC(N)=O)C(=O)N[C@@H](CCCNC(=N)N)C(=O)N[C@@H](CCC(N)=O)C(=O)N[C@@H](CCCCN)C(=O)N[C@@H](C)C(=O)N[C@@H](CCCCN)C(=O)N[C@H](C(=O)N[C@@H](CC(N)=O)C(=O)N[C@@H](C)C(=O)N[C@@H](CCC(N)=O)C(=O)N[C@H](C(=O)N[C@@H](CC(C)C)C(=O)N[C@@H](C)C(=O)N[C@@H](CCCNC(=N)N)C(=O)N[C@H](C(N)=O)C(C)C)[C@@H](C)CC)[C@@H](C)O)C(=O)O) [peptide of SEQ ID NO: 15] | > 1000 nM | 7.75% | 1.38 nM
3 | IVLSLDVPIKLK([AEEA-AEEA-γGlu-C18 diacid])QILLEQERQRKERQQAETNAQILAQV-NH2 (N-terminus assumed; SMILES CC[C@H](C)[C@H](N)C(=O)N[C@H](C(=O)N[C@@H](CC(C)C)C(=O)N[C@@H](CO)C(=O)N[C@@H](CC(C)C)C(=O)N[C@@H](CC(=O)O)C(=O)N[C@H](C(=O)N1CCC[C@H]1C(=O)N[C@H](C(=O)N[C@@H](CCCCN)C(=O)N[C@@H](CC(C)C)C(=O)N[C@@H](CCCCNC(=O)COCCOCCNC(=O)COCCOCCNC(=O)CC[C@H](NC(=O)CCCCCCCCCCCCCCCCC(=O)O)C(=O)O)C(=O)N[C@@H](CCC(N)=O)C(=O)N[C@H](C(=O)N[C@@H](CC(C)C)C(=O)N[C@@H](CC(C)C)C(=O)N[C@@H](CCC(=O)O)C(=O)N[C@@H](CCC(N)=O)C(=O)N[C@@H](CCC(=O)O)C(=O)N[C@@H](CCCNC(=N)N)C(=O)N[C@@H](CCC(N)=O)C(=O)N[C@@H](CCCNC(=N)N)C(=O)N[C@@H](CCCCN)C(=O)N[C@@H](CCC(=O)O)C(=O)N[C@@H](CCCNC(=N)N)C(=O)N[C@@H](CCC(N)=O)C(=O)N[C@@H](CCC(N)=O)C(=O)N[C@@H](C)C(=O)N[C@@H](CCC(=O)O)C(=O)N[C@H](C(=O)N[C@@H](CC(N)=O)C(=O)N[C@@H](C)C(=O)N[C@@H](CCC(N)=O)C(=O)N[C@H](C(=O)N[C@@H](CC(C)C)C(=O)N[C@@H](C)C(=O)N[C@@H](CCC(N)=O)C(=O)N[C@H](C(N)=O)C(C)C)[C@@H](C)CC)[C@@H](C)O)[C@@H](C)CC)[C@@H](C)CC)C(C)C)C(C)C) [peptide of SEQ ID NO: 39] | > 1000 nM | 13.3% | 2.04 nM
4 | IVLSLDVPIKLK([AEEA-AEEA-γGlu-C18 diacid])QILLEQAKQK[Aib]LRAQAETNVRILERV-NH2 (N-terminus assumed; SMILES CC[C@H](C)[C@H](N)C(=O)N[C@H](C(=O)N[C@@H](CC(C)C)C(=O)N[C@@H](CO)C(=O)N[C@@H](CC(C)C)C(=O)N[C@@H](CC(=O)O)C(=O)N[C@H](C(=O)N1CCC[C@H]1C(=O)N[C@H](C(=O)N[C@@H](CCCCN)C(=O)N[C@@H](CC(C)C)C(=O)N[C@@H](CCCCNC(=O)COCCOCCNC(=O)COCCOCCNC(=O)CC[C@H](NC(=O)CCCCCCCCCCCCCCCCC(=O)O)C(=O)O)C(=O)N[C@@H](CCC(N)=O)C(=O)N[C@H](C(=O)N[C@@H](CC(C)C)C(=O)N[C@@H](CC(C)C)C(=O)N[C@@H](CCC(=O)O)C(=O)N[C@@H](CCC(N)=O)C(=O)N[C@@H](C)C(=O)N[C@@H](CCCCN)C(=O)N[C@@H](CCC(N)=O)C(=O)N[C@@H](CCCCN)C(=O)NC(C)(C)C(=O)N[C@@H](CC(C)C)C(=O)N[C@@H](CCCNC(=N)N)C(=O)N[C@@H](C)C(=O)N[C@@H](CCC(N)=O)C(=O)N[C@@H](C)C(=O)N[C@@H](CCC(=O)O)C(=O)N[C@H](C(=O)N[C@@H](CC(N)=O)C(=O)N[C@H](C(=O)N[C@@H](CCCNC(=N)N)C(=O)N[C@H](C(=O)N[C@@H](CC(C)C)C(=O)N[C@@H](CCC(=O)O)C(=O)N[C@@H](CCCNC(=N)N)C(=O)N[C@H](C(N)=O)C(C)C)[C@@H](C)CC)C(C)C)[C@@H](C)O)[C@@H](C)CC)[C@@H](C)CC)C(C)C)C(C)C) [peptide of SEQ ID NO: 46] | > 1000 nM | 5.88% | 8.97 nM
5 | FTLSLDVPTKIK([AEEA-AEEA-γGlu-C18 diacid])QILLKQQKQKKERQQAEKNKQLLERV-NH2 (N-terminus assumed; SMILES CC[C@H](C)[C@H](NC(=O)[C@H](CCC(N)=O)NC(=O)[C@H](CCCCNC(=O)COCCOCCNC(=O)COCCOCCNC(=O)CC[C@H](NC(=O)CCCCCCCCCCCCCCCCC(=O)O)C(=O)O)NC(=O)[C@@H](NC(=O)[C@H](CCCCN)NC(=O)[C@@H](NC(=O)[C@@H]1CCCN1C(=O)[C@@H](NC(=O)[C@H](CC(=O)O)NC(=O)[C@H](CC(C)C)NC(=O)[C@H](CO)NC(=O)[C@H](CC(C)C)NC(=O)[C@@H](NC(=O)[C@@H](N)Cc1ccccc1)[C@@H](C)O)C(C)C)[C@@H](C)O)[C@@H](C)CC)C(=O)N[C@@H](CC(C)C)C(=O)N[C@@H](CC(C)C)C(=O)N[C@@H](CCCCN)C(=O)N[C@@H](CCC(N)=O)C(=O)N[C@@H](CCC(N)=O)C(=O)N[C@@H](CCCCN)C(=O)N[C@@H](CCC(N)=O)C(=O)N[C@@H](CCCCN)C(=O)N[C@@H](CCCCN)C(=O)N[C@@H](CCC(=O)O)C(=O)N[C@@H](CCCNC(=N)N)C(=O)N[C@@H](CCC(N)=O)C(=O)N[C@@H](CCC(N)=O)C(=O)N[C@@H](C)C(=O)N[C@@H](CCC(=O)O)C(=O)N[C@@H](CCCCN)C(=O)N[C@@H](CC(N)=O)C(=O)N[C@@H](CCCCN)C(=O)N[C@@H](CCC(N)=O)C(=O)N[C@@H](CC(C)C)C(=O)N[C@@H](CC(C)C)C(=O)N[C@@H](CCC(=O)O)C(=O)N[C@@H](CCCNC(=N)N)C(=O)N[C@H](C(N)=O)C(C)C) [peptide of SEQ ID NO: 52] | > 1000 nM | 5.3% | 0.76 nM
